Laboratory results taken from article PMC12621184, “Synthesis and Pharmacological Characterization of Nociceptin/Orphanin FQ Dimeric Ligands” (Journal of Medicinal Chemistry, 2025).
Bridge positions count the residues as written; N and C are the ends. Ends that are not written are not given here. Peptide text beside a SMILES is read from it. I, II: the chains in the order shown.

Assays:
[1] = molecular target: T1, human NOP (Homo sapiens, UniProt P41146); test: Calcium mobilization assay, CHO cells with NOP receptor and chimeric G protein; format: cell-based; parameters: expressed in transfected cells; conditions: for EC50: CHO cells coexpressing human NOP and Gαqi5, Fluo-4, 37 °C, mean (CL95%), N = 5 experiments in duplicate, read-out: Ca^2+ mobilization pEC50 (CL95%) (converted); for Ca^2+ mobilization E max ± sem: CHO cells coexpressing human NOP and Gαqi5, maximum change in percentage over baseline fluorescence, mean ± sem, N = 5 in duplicate
Description: Chinese hamster ovary (CHO) cells stably coexpressing the human NOP, μ, or κ opioid receptors and the Gαqi5 protein or the human δ and the GαqG66Di5 protein were used in this assay. , Cells were cultured in DMEM/F-12 (1:1) medium supplemented with 10% FBS, 2 mM L-glutamine, […], 100 IU/mL penicillin, and 100 IU/mL streptomycin. Cells were maintained at 37 °C in a humidified atmosphere with 5% CO2 and were seeded at 50 000 cells/well into 96-well black, clear-bottom plates 24 h before test. Loading for 45 min with a solution consisting of HBSS supplemented with 2.5 mM probenecid, 3 μM Fluo-4 AM, and 0.01% pluronic acid ensures the calcium-sensitive dye (Fluo-4) reaches the needed concentration inside the cell, while the exchange of the solution with 100 μL/well of buffer consisting of HBSS with 20 mM HEPES, 2.5 mM probenecid, and 500 μM Brilliant Black allows for fluorescence background to decrease. Serial dilutions of ligands were prepared in HBSS buffer with 20 mM HEPES and 0.02% bovine serum albumin (BSA) to minimize the ligands’ stickiness to plasticware. The automated microplate reader FlexStation II (Molecular Devices, CA, US) was employed at 37 °C to detect changes in fluorescence intensity. The effects of all compounds were expressed as the maximum change in percentage over the baseline fluorescence measured in samples treated with vehicles.
(§1) Concentration-response curves to agonists were analyzed by a four-parameter logistic nonlinear regression model: Effect = baseline + (E max – baseline)/(1 + 10^((logEC50–log[ligand])slope)). […] Experimental data were expressed as mean ± sem of at least 5 experiments. Potency values were expressed as the mean and CL95%. In vitro E max values were analyzed by one-way ANOVA, while in vivo latency data were evaluated by one-way ANOVA followed by Dunnett’s post hoc test. The proportion of mice losing the righting reflex was compared by Fisher’s exact test performed on raw data. GraphPad Prism 10.0 software was used for all of the analyses. The terminology employed is consistent with the International Union of Basic and Clinical Pharmacology (IUPHAR) recommendations. ,

[2] = molecular target: T1, human NOP; test: NOP receptor–G protein interaction BRET assay; format: biochemical; parameters: expressed in transfected cells; host or cells: membranes of HEK293 cells stably coexpressing NOP-RLuc and Gβ1-RGFP; conditions: N = 5 experiments in duplicate; for EC50: membranes from HEK293 cells coexpressing NOP-RLuc and Gβ1-RGFP, room temperature, mean (CL95%), read-out: NOP–G protein interaction pEC50 (CL95%) (converted)
Description: A BRET interaction assay was used, as previously detailed in ref , to study the propensity of ligands to evoke interaction between the NOP receptor and to G protein. Membranes taken from HEK293 cells stably coexpressing the fusoproteins NOP-RLuc and Gβ1-RGFP were used. Such cells were grown in DMEM medium supplemented with 10% FBS, 2 mM L-glutamine, […] G418, […] hygromycin B, 100 IU/mL penicillin, and 100 IU/mL streptomycin in a humidified atmosphere with 5% CO2 at 37 °C. Cell membranes were thawed and resuspended in PBS supplemented with 0.01% BSA before the assay, and an amount of 3 μg of total protein was dispensed in each of the 96 wells together with 2 μM Prolume Purple Coelenterazine. All experiments were carried out at room temperature. Ligands were added, and averaged BRET ratios from 10 min measurements were computed. BRET ratios were computed as counts per second (CPS) obtained on a Victor Nivo (PerkinElmer) with 405 (10) nm and 510 (30) nm bandpass filters. Vehicles’ BRET ratios were derived from light passed through 510 divided by that passed through 405 filters. Vehicles BRET values were subtracted from all computations, and data sets were normalized as a fraction of N/OFQ maximal effects.
as §1

[3] = molecular target: NOP-RLuc (UniProt P41146); conditions: for E max, NOP–G protein interaction (BRET), normalised to N/OFQ-NH2 (E max = 1): scale: fraction of the maximal effect of N/OFQ-NH2
[4] = molecular target: human nociceptin/orphanin FQ (N/OFQ) peptide receptor (human) (UniProt P41146)
human nociceptin/orphanin FQ (N/OFQ) peptide receptor (human), sequence (P41146 whole entry): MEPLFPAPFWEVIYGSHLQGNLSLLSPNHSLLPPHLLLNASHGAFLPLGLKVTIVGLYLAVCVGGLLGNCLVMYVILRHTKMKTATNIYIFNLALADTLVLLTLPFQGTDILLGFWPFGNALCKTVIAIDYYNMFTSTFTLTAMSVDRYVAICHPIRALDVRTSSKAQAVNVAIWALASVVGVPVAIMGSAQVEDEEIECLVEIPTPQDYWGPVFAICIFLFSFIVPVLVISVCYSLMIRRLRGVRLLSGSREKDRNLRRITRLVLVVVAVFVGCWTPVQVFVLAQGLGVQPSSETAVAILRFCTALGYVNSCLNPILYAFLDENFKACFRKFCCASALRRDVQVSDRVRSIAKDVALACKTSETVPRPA

NOP-RLuc, sequence (P41146 whole entry): as above
T1 sequence (P41146 whole entry): as above

| Molecule | EC50 [1] [nM] | Ca^2+ mobilization E max ± sem [1] [% over the baseline] | NOP–G protein interaction E max ± sem ([2]; effects normalized to N/OFQ-NH2 (E max = 1), mean ± sem) | EC50 [2] [nM] | pEC50, NOP–G protein interaction (BRET, membranes of HEK293 cells with NOP-RLuc and Gβ1-RGFP) [3] [pEC50] | E max, NOP–G protein interaction (BRET), normalised to N/OFQ-NH2 (E max = 1) [3] | E max, Ca^2+ mobilization in CHO cells with human NOP and Gαqi5 (% over baseline) [4] | pEC50, Ca^2+ mobilization in CHO cells with human NOP and Gαqi5 [4] [pEC50] |
| --- | --- | --- | --- | --- | --- | --- | --- | --- |
| CC(C)C[C@H](NC(=O)[C@H](CCCCN)NC(=O)[C@H](CCCNC(=N)N)NC(=O)[C@H](C)NC(=O)[C@H](CO)NC(=O)[C@H](CCCCN)NC(=O)[C@H](CCCNC(=N)N)NC(=O)[C@H](CSSC[C@H](NC(=O)CNC(=O)[C@@H](NC(=O)[C@H](Cc1ccccc1)NC(=O)CNC(=O)CNC(=O)[C@@H](N)Cc1ccccc1)[C@@H](C)O)C(=O)N[C@@H](CCCNC(=N)N)C(=O)N[C@@H](CCCCN)C(=O)N[C@@H](CO)C(=O)N[C@@H](C)C(=O)N[C@@H](CCCNC(=N)N)C(=O)N[C@@H](CCCCN)C(=O)N[C@@H](CC(C)C)C(=O)N[C@@H](C)C(=O)N[C@@H](CC(N)=O)C(=O)N[C@@H](CCC(N)=O)C(N)=O)NC(=O)CNC(=O)[C@@H](NC(=O)[C@H](Cc1ccccc1)NC(=O)CNC(=O)CNC(=O)[C@@H](N)Cc1ccccc1)[C@@H](C)O)C(=O)N[C@@H](C)C(=O)N[C@@H](CC(N)=O)C(=O)N[C@@H](CCC(N)=O)C(N)=O [1a, [[Cys^7]N/OFQ-NH2]2] (I: H-FGGFTGCRKSARKLANQ-NH2 / II: H-FGGFTGCRKSARKLANQ-NH2; disulfide I:7-II:7) | 26.9 | 293 ± 18 | 1.09 ± 0.09 | 1.95 |  |  |  |  |
| CC(C)C[C@H](NC(=O)[C@H](CCCCN)NC(=O)[C@H](CCCNC(=N)N)NC(=O)[C@H](C)NC(=O)[C@H](CO)NC(=O)[C@H](CSSC[C@H](NC(=O)[C@H](CCCNC(=N)N)NC(=O)[C@H](C)NC(=O)CNC(=O)[C@@H](NC(=O)[C@H](Cc1ccccc1)NC(=O)CNC(=O)CNC(=O)[C@@H](N)Cc1ccccc1)[C@@H](C)O)C(=O)N[C@@H](CO)C(=O)N[C@@H](C)C(=O)N[C@@H](CCCNC(=N)N)C(=O)N[C@@H](CCCCN)C(=O)N[C@@H](CC(C)C)C(=O)N[C@@H](C)C(=O)N[C@@H](CC(N)=O)C(=O)N[C@@H](CCC(N)=O)C(N)=O)NC(=O)[C@H](CCCNC(=N)N)NC(=O)[C@H](C)NC(=O)CNC(=O)[C@@H](NC(=O)[C@H](Cc1ccccc1)NC(=O)CNC(=O)CNC(=O)[C@@H](N)Cc1ccccc1)[C@@H](C)O)C(=O)N[C@@H](C)C(=O)N[C@@H](CC(N)=O)C(=O)N[C@@H](CCC(N)=O)C(N)=O [1c, [[Cys^9]N/OFQ-NH2]2] (I: H-FGGFTGARCSARKLANQ-NH2 / II: H-FGGFTGARCSARKLANQ-NH2; disulfide I:9-II:9) | 5.01 | 289 ± 18 |  | 1.35 |  |  |  |  |
| CC(C)C[C@H](NC(=O)[C@H](CSSC[C@H](NC(=O)[C@H](CCCNC(=N)N)NC(=O)[C@H](C)NC(=O)[C@H](CO)NC(=O)[C@H](CCCCN)NC(=O)[C@H](CCCNC(=N)N)NC(=O)[C@H](C)NC(=O)CNC(=O)[C@@H](NC(=O)[C@H](Cc1ccccc1)NC(=O)CNC(=O)CNC(=O)[C@@H](N)Cc1ccccc1)[C@@H](C)O)C(=O)N[C@@H](CC(C)C)C(=O)N[C@@H](C)C(=O)N[C@@H](CC(N)=O)C(=O)N[C@@H](CCC(N)=O)C(N)=O)NC(=O)[C@H](CCCNC(=N)N)NC(=O)[C@H](C)NC(=O)[C@H](CO)NC(=O)[C@H](CCCCN)NC(=O)[C@H](CCCNC(=N)N)NC(=O)[C@H](C)NC(=O)CNC(=O)[C@@H](NC(=O)[C@H](Cc1ccccc1)NC(=O)CNC(=O)CNC(=O)[C@@H](N)Cc1ccccc1)[C@@H](C)O)C(=O)N[C@@H](C)C(=O)N[C@@H](CC(N)=O)C(=O)N[C@@H](CCC(N)=O)C(N)=O [1g, [[Cys^13]N/OFQ-NH2]2] (I: H-FGGFTGARKSARCLANQ-NH2 / II: H-FGGFTGARKSARCLANQ-NH2; disulfide I:13-II:13) | 1.62 | 247 ± 39 |  | 0.302 |  |  |  |  |
| FGGFTGACKSARKLANQ-NH2 (also: homodimer: Cys8-Cys8 disulfide to second copy) [[[Cys^8]N/OFQ-NH2]2] |  |  |  |  | 8.04 | 1.04 | 322 | 7.36 |
| FGGFTGARCSARKLANQ-NH2 (also: homodimer: Cys9-Cys9 disulfide to second copy) [[[Cys^9]N/OFQ-NH2]2] |  |  |  |  | 8.87 | 1.03 | 289 | 8.3 |
| FGGFTGARKCARKLANQ-NH2 (also: homodimer: Cys10-Cys10 disulfide to second copy) [[[Cys^10]N/OFQ-NH2]2] |  |  |  |  | 9.85 | 1.07 | 305 | 8.72 |
| FGGFTGARKSACKLANQ-NH2 (also: homodimer: Cys12-Cys12 disulfide to second copy) [[[Cys^12]N/OFQ-NH2]2] |  |  |  |  | 8.9 | 1.07 | 346 | 8.52 |
| FGGFTGARKSARCLANQ-NH2 (also: homodimer: Cys13-Cys13 disulfide to second copy) [[[Cys^13]N/OFQ-NH2]2] |  |  |  |  | 9.52 | 0.84 | 247 | 8.79 |
| FGGFTGARKSARKLCNQ-NH2 (also: homodimer: Cys15-Cys15 disulfide to second copy) [[[Cys^15]N/OFQ-NH2]2] |  |  |  |  | 9.71 | 0.95 | 297 | 8.53 |
| FGGFTGARKSARKLACQ-NH2 (also: homodimer: Cys16-Cys16 disulfide to second copy) [[[Cys^16]N/OFQ-NH2]2] |  |  |  |  | 9.76 | 0.98 | 312 | 8.86 |
| FGGFTGCRKSARKLANQ-NH2 (also: homodimer: Cys7-Cys7 disulfide to second copy) [[[Cys^7]N/OFQ-NH2]2] |  |  |  |  | 8.71 | 1.09 | 293 | 7.57 |
